# Measurements as given in patent US20240158475A1.
# Changes are numbered by the printed parent chain.
# B1: Mutation 2 (antibody, V domains shown)
# VH: EVQLQQSGTELVRPGALVKLSCKASGFNIKDYYVHWVKQRPRQGLEWIGWIDPNNGKTLYDPKYQDKASITSDTSTNTAYLQLRSLTSEDTAVYYCVTAYVRFVYWGQGTLVTVSA
# VL: QIVLTQSPAIMSAFPGERVTMTCSASSSVRYMYWHQQKPGSSPRLLIYDTSNVASGVPVRFSGSGSGTSYSLTISRDEAMDAATYYCQQYSSTPRTFGGGTKLEIKR
# B2: anti-dengue virus NS1 3D5 monoclonal antibody (recombinant, expressed in CHO cells) (antibody, mouse IgG1, kappa, V domains shown)
# VH: B1 VH with L59I, Y64F
# VL: B1 VL with S27T, R30K, D49E, V53I, Y90W, T93Y
# B3: Mutation 1 (antibody, V domains shown)
# VH: B1 VH with N54E, Y64F
# VL: B1 VL with Y90W
# B4: Mutation 3 (antibody, V domains shown)
# VH: B1 VH with D31L, N54K, Y64C
# VL: B1 VL with R30V, D49C, V57L, Y90R
# B5: Mutation 4 (antibody, V domains shown)
# VH: B1 VH with D31R, N54R, Y64V
# VL: B1 VL with R30I, D49W, V57Y, Y90V
# B6: WT 1-4 (antibody, V domains shown)
# VH: B1 VH with D31E, V34L, N54D, Y64V, V101Y
# VL: B1 VL with R30K, D49E, V53L, V57F, Y90Q, T93F
# B7: Mutation 1-20 (antibody, V domains shown)
# VH: B1 VH with N54E, Y64F, T98S, V101Y
# VL: B1 VL with Y90W
# B8: Mutation 1-18 (antibody, V domains shown)
# VH: B1 VH with N54E, Y64F, T98S
# VL: B1 VL with V53L, Y90W
# B9: Mutation 1-6 (antibody, V domains shown)
# VH: B1 VH with N54E, L59I, Y64F
# VL: B1 VL with S27T, V53I, Y90W
# B10: Mutation 1-4 (antibody, V domains shown)
# VH: B1 VH with V34I, N54E, Y64F, T98S, V101F
# VL: B1 VL with V53L, Y90W, T93Y
# B11: WT 1-7 (antibody, V domains shown)
# VH: B1 VH with D31E, N54D, L59I, Y64V, T98S
# VL: B1 VL with S27T, R30K, D49E, V57F, Y90Q
# B12: Mutation 1-8 (antibody, V domains shown)
# VH: B1 VH with V34L, N54E, L59I, Y64F, V101Y
# VL: B1 VL with S27T, Y90W, T93F
# B13: WT 1-20 (antibody, V domains shown)
# VH: B1 VH with D31E, V34I, N54D, Y64V, T98S, V101F
# VL: B1 VL with R30K, D49E, V53I, V57F, Y90Q, T93Y
# B14: Mutation 1-1 (antibody, V domains shown)
# VH: B1 VH with V34I, N54E, L59I, Y64F, V101F
# VL: B1 VL with S27T, V53L, Y90W, T93Y
# B15: Mutation 1-3 (antibody, V domains shown)
# VH: B1 VH with N54E, L59I, Y64F, T98S
# VL: B1 VL with S27T, V53I, Y90W
# B16: Mutation 1-15 (antibody, V domains shown)
# VH: B1 VH with N54E, L59I, Y64F, V101Y
# VL: B1 VL with S27T, V53I, Y90W
# B17: Mutation 1-11 (antibody, V domains shown)
# VH: B1 VH with V34L, N54E, Y64F, T98S, V101Y
# VL: B1 VL with Y90W, T93F
# B18: Mutation 1-9 (antibody, V domains shown)
# VH: B1 VH with N54E, Y64F, T98S
# VL: B1 VL with V53I, Y90W
# B19: Mutation 1-7 (antibody, V domains shown)
# VH: B1 VH with V34I, N54E, Y64F, V101F
# VL: B1 VL with V53L, Y90W, T93Y
# B20: Mutation 1-13 (antibody, V domains shown)
# VH: B1 VH with V34I, N54E, L59I, Y64F, V101Y
# VL: B1 VL with V53L, Y90W, T93Y
# B21: Mutation 1-10 (antibody, V domains shown)
# VH: B1 VH with V34I, N54E, L59I, Y64F, T98S, V101F
# VL: B1 VL with S27T, V53L, Y90W, T93Y
# B22: Mutation 1-17 (antibody, V domains shown)
# VH: B1 VH with V34L, N54E, L59I, Y64F, T98S, V101F
# VL: B1 VL with S27T, V53I, Y90W, T93F
# B23: Mutation 1-5 (antibody, V domains shown)
# VH: B1 VH with V34L, N54E, L59I, Y64F, T98S, V101Y
# VL: B1 VL with S27T, Y90W, T93F
# B24: Mutation 1-16 (antibody, V domains shown)
# VH: B1 VH with V34I, N54E, Y64F, T98S
# VL: B1 VL with Y90W, T93Y
# B25: Mutation 1-14 (antibody, V domains shown)
# VH: B1 VH with V34L, N54E, Y64F, T98S
# VL: B1 VL with S27T, Y90W, T93F
# B26: Mutation 1-22 (antibody, V domains shown)
# VH: B1 VH with V34I, N54E, Y64F, T98S, V101Y
# VL: B1 VL with S27T, V53L, Y90W, T93F
# B27: Mutation 1-12 (antibody, V domains shown)
# VH: B1 VH with N54E, Y64F, V101F
# VL: B1 VL with S27T, V53I, Y90W
# B28: Mutation 1-2 (antibody, V domains shown)
# VH: B1 VH with V34L, N54E, Y64F, V101Y
# VL: B1 VL with Y90W, T93F
# B29: Mutation 1-21 (antibody, V domains shown)
# VH: B1 VH with N54E, L59I, Y64F, T98S, V101F
# VL: B1 VL with V53L, Y90W, T93F
# B30: Mutation 1-19 (antibody, V domains shown)
# VH: B1 VH with V34I, N54E, L59I, Y64F, T98S, V101F
# VL: B1 VL with S27T, Y90W, T93Y
# Molecular target: DN-III-NS antigen (produced by Fapon Biotech InC.) (dengue virus)
# Test: capture ELISA, antibody sample 9-fold dilution
row,Binder,OD450 (ref. 630 nm)
1,B1,2.13 OD
2,B2,2.22 OD
3,B3,2.29 OD
4,B4,0.21 OD
5,B5,0.014 OD

# Molecular target: DN-III-NS antigen (produced by Fapon Biotech InC.) (dengue virus)
# Test: capture ELISA (anti-mouse IgG / antibody / antigen / HRP-mAb), antibody sample Original
row,Binder,OD450 (ref. 630 nm)
1,B1,2.27 OD
2,B2,2.34 OD
3,B3,2.37 OD
4,B4,1.05 OD
5,B5,0.892 OD

# Molecular target: DN-III-NS antigen (produced by Fapon Biotech InC.) (dengue virus)
# Test: capture ELISA, antibody sample 243-fold dilution
row,Binder,OD450 (ref. 630 nm)
1,B1,0.204 OD
2,B2,0.281 OD
3,B3,0.361 OD

# Molecular target: DN-III-NS antigen (produced by Fapon Biotech InC.) (dengue virus)
# Test: capture ELISA, antibody sample 81-fold dilution
row,Binder,OD450 (ref. 630 nm)
1,B1,0.689 OD
2,B2,0.696 OD
3,B3,0.918 OD

# Molecular target: DN-III-NS antigen (produced by Fapon Biotech InC.) (dengue virus)
# Test: capture ELISA, antibody sample 729-fold dilution
row,Binder,OD450 (ref. 630 nm)
1,B1,0.158 OD
2,B2,0.169 OD
3,B3,0.188 OD

# Molecular target: DN-III quality control recombinant protein (produced by Fapon Biotech InC.) (dengue virus)
# Test: BLI, AMC sensor, antibody captured
Binder,Kd,koff,kon
B6,11.9 nM,4.95e-05 s⁻¹,4150 M⁻¹ s⁻¹
B7,0.41 nM,1.66e-05 s⁻¹,40900 M⁻¹ s⁻¹
B8,0.9 nM,3.99e-05 s⁻¹,44500 M⁻¹ s⁻¹
B2,3.09 nM,0.000137 s⁻¹,44300 M⁻¹ s⁻¹
B9,0.8 nM,3.72e-05 s⁻¹,46700 M⁻¹ s⁻¹
B10,0.29 nM,1.04e-05 s⁻¹,36200 M⁻¹ s⁻¹
B11,3.7 nM,1.53e-05 s⁻¹,4090 M⁻¹ s⁻¹
B12,0.7 nM,2.33e-05 s⁻¹,33200 M⁻¹ s⁻¹
B13,5.3 nM,1.64e-05 s⁻¹,3120 M⁻¹ s⁻¹
B14,0.72 nM,2.38e-05 s⁻¹,33100 M⁻¹ s⁻¹
B3,1.07 nM,4.03e-05 s⁻¹,37700 M⁻¹ s⁻¹
B15,0.32 nM,1.51e-05 s⁻¹,47400 M⁻¹ s⁻¹
B16,0.42 nM,1.89e-05 s⁻¹,45200 M⁻¹ s⁻¹
B17,0.87 nM,2.83e-05 s⁻¹,32400 M⁻¹ s⁻¹
B18,0.45 nM,1.35e-05 s⁻¹,30100 M⁻¹ s⁻¹
B19,0.11 nM,3.91e-05 s⁻¹,357000 M⁻¹ s⁻¹
B20,0.49 nM,2.08e-05 s⁻¹,42400 M⁻¹ s⁻¹
B21,1.14 nM,4.21e-05 s⁻¹,36900 M⁻¹ s⁻¹
B22,0.78 nM,2.71e-05 s⁻¹,34600 M⁻¹ s⁻¹
B23,0.43 nM,2.11e-05 s⁻¹,49700 M⁻¹ s⁻¹
B24,0.8 nM,3.04e-05 s⁻¹,38100 M⁻¹ s⁻¹
B25,0.111 nM,4.53e-05 s⁻¹,408000 M⁻¹ s⁻¹
B26,0.87 nM,3.2e-05 s⁻¹,48400 M⁻¹ s⁻¹
B27,1.09 nM,4.55e-05 s⁻¹,41800 M⁻¹ s⁻¹
B28,0.103 nM,4.99e-05 s⁻¹,483000 M⁻¹ s⁻¹
B29,0.66 nM,1.31e-05 s⁻¹,32300 M⁻¹ s⁻¹
B30,4.1 nM,4.34e-05 s⁻¹,31400 M⁻¹ s⁻¹

# Molecular target: DN-III-NS antigen (produced by Fapon Biotech InC.) (dengue virus)
# Test: capture ELISA, antibody sample 3-fold dilution
row,Binder,OD450 (ref. 630 nm)
1,B1,2.25 OD
2,B2,2.31 OD
3,B3,2.38 OD
4,B4,0.879 OD
5,B5,0.102 OD

# Molecular target: DN-III-NS antigen (produced by Fapon Biotech InC.) (dengue virus)
# Test: capture ELISA, antibody sample 27-fold dilution
row,Binder,OD450 (ref. 630 nm)
1,B1,1.56 OD
2,B2,1.57 OD
3,B3,1.9 OD
4,B4,0.031 OD
